{"source": "patent US20230146665A1", "about": "(Xencor, published 2023)", "target": "T1, IL18BP (human, UniProt O95998 31-194)", "T1 construct": "also called ILBP antigen", "T1 sequence (looked up)": "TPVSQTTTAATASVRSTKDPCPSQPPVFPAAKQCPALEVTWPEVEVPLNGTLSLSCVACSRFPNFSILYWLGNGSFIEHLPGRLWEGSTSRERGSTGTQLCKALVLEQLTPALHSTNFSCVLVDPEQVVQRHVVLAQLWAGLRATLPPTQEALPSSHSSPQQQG", "experiment": "Octet (BLI), IL18BP as ligand on the biosensor, IL18 fusion as analyte", "text": "Binding of variant IL18 to IL18 receptors or IL18BP were investigated using Octet, a BioLayer Interferometry (BLI)-based method. Experimental steps for Octet generally include the following: Immobilization (capture of ligand to a biosensor); Association (dipping of ligand-coated biosensors into wells containing serial dilutions of the analyte); and Dissociation (returning of biosensors to well containing buffer) in order to determine the affinity of the test articles. A reference well containing buffer alone was also included in the method for background correction during data processing. In particular, ligands used were IL18R1, IL18R1xIL18RAP heterodimer, or IL18BP, and the analytes were IL18 fusions. Illustrative sequences for these antigens are depicted in FIGS. 1-3 (respectively for human, mouse, and cynomolgus monkey)."}
{"binder": "XENP40253 (Fc fusion, also called K53D single substitution variant; K53D) YFGKLESKLSVIRNLNDQVLFIDQGNRPLFEDMTDSDSRDNAPRTIFIISMYDDSQPRGMAVTISVKSEKISTLSSENKIISFKEMNPPDNIKDTKSDIIFFQRSVPGHDNKMQFESSSYEGYFLASEKERDLFKLILKKEDELGDRSIMFTVQNEDEPKSSDKTHTCPPCPAPPVAGPSVFLFPPKPKDTLMISRTPEVTCVVVDVKHEDPEVKFNWYVDGVEVHNAKTKPREEEYNSTYRVVSVLTVLHQDWLNGKEYKCKVSNKALPAPIEKTISKAKGQPREPQVYTLPPSREEMTKNQVSLTCDVSGFYPSDIAVEWESDGQPENNYKTTPPVLDSDGSFFLYSKLTVDKSRWEQGDVFSCSVMHEALHNHYTQKSLSLSPG heavy: QVQLQESGPGLVRPSQTLSLTCTVSGFSLTGYGVNWVRQPPGRGLEWIGMIWGDGNTDYNSALKSRVTMLKDTSKNQFSLRLSSVTAADTAVYYCARERDYRLDYWGQGSLVTVSSASTKGPSVFPLAPSSKSTSGGTAALGCLVKDYFPEPVTVSWNSGALTSGVHTFPAVLQSSGLYSLSSVVTVPSSSLGTQTYICNVNHKPSNTKVDKKVEPKSCDKTHTCPPCPAPPVAGPSVFLFPPKPKDTLMISRTPEVTCVVVDVKHEDPEVKFNWYVDGVEVHNAKTKPREEQYNSTYRVVSVLTVLHQDWLNGKEYKCKVSNKALPAPIEKTISKAKGQPREPQVYTLPPSREQMTKNQVKLTCLVKGFYPSDIAVEWESNGQPENNYKTTPPVLDSDGSFFLYSKLTVDKSRWQQGNVFSCSVMHEALHNRFTQKSLSLSPG light: DIQMTQSPSSLSASVGDRVTITCRASGNIHNYLAWYQQKPGKAPKLLIYYTTTLADGVPSRFSGSGSGTDYTFTISSLQPEDIATYYCQHFWSTPRTFGQGTKVEIKRTVAAPSVFIFPPSDEQLKSGTASVVCLLNNFYPREAKVQWKVDNALQSGNSQESVTEQDSKDSTYSLSSTLTLSKADYEKHKVYACEVTHQGLSSPVTKSFNRGEC", "values": [{"measurement": "binding result", "result": "no binding"}]}
